This note sets out measurements from the supplement of paper PMC7877785.

The series in a line: self-splicing fitness, log relative to wild type (ln ratio); higher = more splicing; Tetrahymena group I intron in knt gene, E. coli kanamycin selection, DiMSum; sequences stand for … in CUCUCU…GGAGGGAAAAGUUAUCAGGCAUGCACCUGGUAGCUAGUCUUUAAACCAAUAGAUUGCAUCGGUUUAAAAGGCAAGACCGUCAAAUUGCGGGAAAGGGGUCAACAGCCGUUCAGUACCAAGUCUCAGGGGAAACUUUGAGAUGGCCUUGCAAAGGGUAUGGUAAUAAGCUGACGGACAUGGUCCUAACCACGCAGCCAAGUCCUAAGUCAACAGAUCUUCUGUUGAUAUGGAUGCAGUUCACAGACUAAAUGUCGGUCGGGGAAGAUGUAUUCUUCUCAUAAGAUAUAGUCGGACCUCUCCUUAAUGGGAGCUAGCGGAUGAAGUGAUGCAACACUGGAGCCGCUGGGAACUAAUUUGUAUGCGAAAGUAUAUUGAUUAGUUUUGGAGUACUCGUGGUCG
Summed up:
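Colonies from six replicate transformations of E. coli BL21(DE3) were pooled and amplicon-sequenced on an Illumina HiSeq 2500. The library placed an intron with all eight P1ex-region nucleotides randomised inside the knt kanamycin-resistance gene on pET-22b(+), and cells grew overnight at 37°C or 30°C on LB agar with or without 25 μg/mL kanamycin (plus 100 μg/mL carbenicillin, 50 μM IPTG, 0.2% rhamnose). Fitness is the DiMSum error-weighted combination of wild-type-normalised replicate fold changes, kanamycin versus none.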

± gives the uncertainty stated by the source.

As for CACGAGCAAUAUUACGUAGC, the “self-splicing fitness (ln)” value by setting is: (30 °C) -2.94 ± 0.24; (37 °C) -3.31 ± 0.3.
Consider CACGAGCAAUAUUACGUAUC, for which the “self-splicing fitness (ln)” value runs as follows: (30 °C) -2.94 ± 0.38; (37 °C) -2.81 ± 0.36.
Taken in the same sequence, the figures for CACGAGCAAUAUUACGUAUU were -4.05 ± 0.17 and -2.48 ± 0.13.
In the case of CACGAGCAAUAUUACGUCAC, the “self-splicing fitness (ln)” value is -3.41 ± 0.2 (30 °C) and -3.18 ± 0.37 (37 °C).
Take CACGAGCAAUAUUACGUGGA: the “self-splicing fitness (ln)” value runs as follows: (30 °C) -3.08 ± 0.17; (37 °C) -2.2 ± 0.17.
Take CACGAGCAAUAUUACGUGGC: the “self-splicing fitness (ln)” value (30 °C) is -4.09 ± 0.37 and the “self-splicing fitness (ln)” value (37 °C) was -2.13 ± 0.21.
Turning to CACUAGCAAUAUUACGACCA, the “self-splicing fitness (ln)” value (30 °C) is -1.18 ± 0.14 and the “self-splicing fitness (ln)” value (37 °C) is -1.69 ± 0.21.
CACUAGCAAUAUUACGAGCG: the “self-splicing fitness (ln)” value (30 °C) was -0.458 ± 0.083 and the “self-splicing fitness (ln)” value (37 °C) was determined as 0.257 ± 0.086.
In the case of CACUAGCAAUAUUACGAUCA, the “self-splicing fitness (ln)” value is, setting by setting: (30 °C) -2.46 ± 0.17; (37 °C) -1.22 ± 0.16.
For the sequence CACUAGCAAUAUUACGAUCU, the “self-splicing fitness (ln)” value is -3.56 ± 0.19 (30 °C) and -2.18 ± 0.18 (37 °C).
Consider CACUAGCAAUAUUACGCACC, for which the “self-splicing fitness (ln)” value is -2.29 ± 0.18 (30 °C) and -0.458 ± 0.19 (37 °C).
With CACUAGCAAUAUUACGCGAU, the “self-splicing fitness (ln)” value was -2.63 ± 0.23 (30 °C) and -2.12 ± 0.28 (37 °C).
Regarding CACUAGCAAUAUUACGCUAC, the “self-splicing fitness (ln)” value (37 °C) is -2.31 ± 0.25.
For CACUAGCAAUAUUACGGCGC, the “self-splicing fitness (ln)” value is, setting by setting: (30 °C) -2.98 ± 0.15; (37 °C) -1.11 ± 0.15.
For CACUAGCAAUAUUACGGCGU, the “self-splicing fitness (ln)” value reads like this: (30 °C) -1.8 ± 0.12; (37 °C) -0.74 ± 0.11.
With CACUAGCAAUAUUACGGGAU, the “self-splicing fitness (ln)” value (30 °C) was -4.27 ± 0.21 and the “self-splicing fitness (ln)” value (37 °C) is -2.58 ± 0.15.
Turning to CACUAGCAAUAUUACGGUAC, the “self-splicing fitness (ln)” value (30 °C) was -3.09 ± 0.2 and the “self-splicing fitness (ln)” value (37 °C) is -2.87 ± 0.19.
Regarding CACUAGCAAUAUUACGGUAU, the “self-splicing fitness (ln)” value by setting is: (30 °C) -3.41 ± 0.23; (37 °C) -0.916 ± 0.13.
For the sequence CACUAGCAAUAUUACGGUGU, the “self-splicing fitness (ln)” value is, setting by setting: (30 °C) -3.65 ± 0.15; (37 °C) -2.95 ± 0.21.
Taken in the same sequence, the figures for CACUAGCAAUAUUACGUAUC were -3.43 ± 0.25 and -2.27 ± 0.19.
Turning to CACUAGCAAUAUUACGUCAC, the “self-splicing fitness (ln)” value is -4.12 ± 0.29 (30 °C) and -2.01 ± 0.21 (37 °C).
Consider CACUAGCAAUAUUACGUGAA, for which the “self-splicing fitness (ln)” value is, setting by setting: (30 °C) -3.83 ± 0.15; (37 °C) -3.05 ± 0.18.
Turning to CACUAGCAAUAUUACGUGAC, the “self-splicing fitness (ln)” value runs as follows: (30 °C) -2.12 ± 0.14; (37 °C) -2.36 ± 0.19.
For CACUAGCAAUAUUACGUGAG, the “self-splicing fitness (ln)” value by setting is: (30 °C) -3.33 ± 0.14; (37 °C) -2.91 ± 0.23.
As for CACUAGCAAUAUUACGUUCA, the “self-splicing fitness (ln)” value runs as follows: (30 °C) -2.34 ± 0.17; (37 °C) -2.49 ± 0.2.
With CAGAAGCAAUAUUACGAACG, the “self-splicing fitness (ln)” value is -0.0252 ± 0.12 (30 °C) and 0.182 ± 0.16 (37 °C).
Take CAGAAGCAAUAUUACGAUAA: the “self-splicing fitness (ln)” value by setting is: (30 °C) -2.32 ± 0.17; (37 °C) -2.02 ± 0.26.
For CAGAAGCAAUAUUACGAUCU, the “self-splicing fitness (ln)” value is -1.88 ± 0.12 (30 °C) and -0.995 ± 0.1 (37 °C).
For the sequence CAGAAGCAAUAUUACGAUUA, the “self-splicing fitness (ln)” value (30 °C) was -2.93 ± 0.17 and the “self-splicing fitness (ln)” value (37 °C) is -1.51 ± 0.12.
Consider CAGAAGCAAUAUUACGCAUC, for which the “self-splicing fitness (ln)” value was -4.43 ± 0.37 (30 °C) and -2.37 ± 0.14 (37 °C).
Consider CAGAAGCAAUAUUACGCAUU, for which the “self-splicing fitness (ln)” value by setting is: (30 °C) -4.37 ± 0.27; (37 °C) -2.92 ± 0.2.
Consider CAGAAGCAAUAUUACGCCGG, for which the “self-splicing fitness (ln)” value is -0.314 ± 0.13 (30 °C) and -0.619 ± 0.17 (37 °C).
In the case of CAGAAGCAAUAUUACGCGAU, the “self-splicing fitness (ln)” value is -4.46 ± 0.32 (30 °C) and -2.59 ± 0.21 (37 °C).
